Reference: publication PMC10786891, “Massively parallel profiling of RNA-targeting CRISPR-Cas13d”
Where a chain is given by its changes, count along the chain named. Names and notes keep the numbering of the source.

T1: EsCas13d, nuclease-dead (Eubacterium siraeum, UniProt B0MS50, R295A;H300A;R849A;H854A)
T1 sequence: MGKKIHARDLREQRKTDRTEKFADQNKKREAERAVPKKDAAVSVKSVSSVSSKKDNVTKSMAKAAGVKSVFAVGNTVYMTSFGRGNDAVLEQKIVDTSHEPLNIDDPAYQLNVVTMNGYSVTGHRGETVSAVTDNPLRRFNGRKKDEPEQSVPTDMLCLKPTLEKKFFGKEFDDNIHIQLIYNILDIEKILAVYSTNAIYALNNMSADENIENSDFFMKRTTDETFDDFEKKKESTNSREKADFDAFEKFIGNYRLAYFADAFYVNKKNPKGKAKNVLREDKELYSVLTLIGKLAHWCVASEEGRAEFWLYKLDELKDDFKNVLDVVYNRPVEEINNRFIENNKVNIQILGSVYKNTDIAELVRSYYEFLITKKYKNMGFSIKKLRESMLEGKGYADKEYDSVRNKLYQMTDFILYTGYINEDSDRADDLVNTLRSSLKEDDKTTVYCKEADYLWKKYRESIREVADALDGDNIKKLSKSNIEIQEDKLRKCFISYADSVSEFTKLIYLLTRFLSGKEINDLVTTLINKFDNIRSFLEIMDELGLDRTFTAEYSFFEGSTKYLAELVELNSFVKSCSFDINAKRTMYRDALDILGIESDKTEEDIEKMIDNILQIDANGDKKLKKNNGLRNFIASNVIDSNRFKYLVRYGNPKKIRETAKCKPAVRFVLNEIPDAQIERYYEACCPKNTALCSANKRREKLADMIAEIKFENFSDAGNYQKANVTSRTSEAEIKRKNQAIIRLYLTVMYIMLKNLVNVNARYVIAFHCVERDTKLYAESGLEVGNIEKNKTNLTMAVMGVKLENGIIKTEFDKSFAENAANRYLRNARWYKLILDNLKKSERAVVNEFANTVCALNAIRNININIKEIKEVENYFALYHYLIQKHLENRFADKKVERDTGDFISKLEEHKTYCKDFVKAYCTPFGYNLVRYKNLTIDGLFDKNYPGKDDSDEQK

B1: target 3 U7G (mixed)
RNA 1: CACCCGUGCAAAAUUGCAGGGGUCUAAAACGACCUGAAUAUUUCAGAUCAAA
RNA 2: GGGAAUGGAUCCACAUCUACGAAUUCGUUUUUGAUCUGAAAUAUGCAGGUCUGCAGAUCGGAAGAGCACACGU
B2: target 3 insA 3' of 21,insA 3' of 21 (mixed)
RNA 1: B1 RNA 1
RNA 2: GGGAAUGGAUCCACAUCUACGAAUUCGUUUUAAUGAUCUGAAAUAUUCAGGUCUGCAGAUCGGAAGAGCACACGU
B3: target 3 U2C,A11C (mixed)
RNA 1: B1 RNA 1
RNA 2: B1 RNA 2 with A41C, G45U, U50C
B4: target 3 C1U,G4C (mixed)
RNA 1: B1 RNA 1
RNA 2: B1 RNA 2 with G45U, G48C, C51U
B5: target 3 insA 3' of 10 (mixed)
RNA 1: B1 RNA 1
RNA 2: GGGAAUGGAUCCACAUCUACGAAUUCGUUUUUGAUCUGAAAUAAUUCAGGUCUGCAGAUCGGAAGAGCACACGU
B6: target 3 insA 3' of 21,insC 3' of 5 (mixed)
RNA 1: B1 RNA 1
RNA 2: GGGAAUGGAUCCACAUCUACGAAUUCGUUUUAUGAUCUGAAAUAUUCACGGUCUGCAGAUCGGAAGAGCACACGU
B7: target 3 insU 3' of 22,insA 3' of 4 (mixed)
RNA 1: B1 RNA 1
RNA 2: B6 RNA 2 with A32U, C49G, G50A
B8: target 3 G3A,U8G (mixed)
RNA 1: B1 RNA 1
RNA 2: B1 RNA 2 with U44G, G45U, G49A
B9: target 3 insU 3' of 3,insU 3' of 1 (mixed)
RNA 1: B1 RNA 1
RNA 2: GGGAAUGGAUCCACAUCUACGAAUUCGUUUUUGAUCUGAAAUAUUCAGGUUCUUGCAGAUCGGAAGAGCACACGU
B10: target 3 U7C,U22A (mixed)
RNA 1: B1 RNA 1
RNA 2: B1 RNA 2 with U30A, G45C
B11: target 3 insA 3' of 7,insC 3' of 3 (mixed)
RNA 1: B1 RNA 1
RNA 2: B9 RNA 2 with C46A, A47C, G48A, U50G, U51C, C52U, U53C
B12: target 3 insU 3' of 6,insU 3' of 5 (mixed)
RNA 1: B1 RNA 1
RNA 2: B9 RNA 2 with A47U, G48A, G49U, U50G, U51G, C52U, U53C
B13: target 3 insG 3' of 1,insG 3' of 1 (mixed)
RNA 1: B1 RNA 1
RNA 2: B9 RNA 2 with U51C, C52G, U53G
B14: target 3 insC 3' of 5,insU 3' of 3 (mixed)
RNA 1: B1 RNA 1
RNA 2: B9 RNA 2 with G48C, U50G, C52U, U53C
B15: target 3 A11C,U15C (mixed)
RNA 1: B1 RNA 1
RNA 2: B1 RNA 2 with U37C, A41C, G45U
B16: target 3 insU 3' of 22,insU 3' of 19 (mixed)
RNA 1: B1 RNA 1
RNA 2: B2 RNA 2 with A32U, A33U, U34G, G35U
B17: target 3 C6U,C16U (mixed)
RNA 1: B1 RNA 1
RNA 2: B1 RNA 2 with C36U, G45U, C46U
B18: target 3 insA 3' of 22,insC 3' of 3 (mixed)
RNA 1: B1 RNA 1
RNA 2: B6 RNA 2 with U31A, A32U, C49G, G51C
B19: target 3 insA 3' of 7,insG 3' of 5 (mixed)
RNA 1: B1 RNA 1
RNA 2: B9 RNA 2 with C46A, A47C, G48A, U50G, U51G, C52U, U53C
B20: target 3 complement block 1-7 (mixed)
RNA 1: B1 RNA 1
RNA 2: B1 RNA 2 with G45A, C46G, A47U, G48C, G49C, U50A, C51G
B21: target 3 insG 3' of 9,insA 3' of 4 (mixed)
RNA 1: B1 RNA 1
RNA 2: B9 RNA 2 with U44G, C46U, A47C, G48A, U50A, U51G, C52U, U53C
B22: target 3 insA 3' of 4,insG 3' of 2 (mixed)
RNA 1: B1 RNA 1
RNA 2: B9 RNA 2 with G49A, U50G, C52G, U53C
B23: target 3 C6G (mixed)
RNA 1: B1 RNA 1
RNA 2: B1 RNA 2 with G45U, C46G
B24: target 3 C1U,U7G (mixed)
RNA 1: B1 RNA 1
RNA 2: B1 RNA 2 with C51U
B25: target 3 insU 3' of 16,insG 3' of 1 (mixed)
RNA 1: B1 RNA 1
RNA 2: GGGAAUGGAUCCACAUCUACGAAUUCGUUUUUGAUCUUGAAAUAUUCAGGUCGUGCAGAUCGGAAGAGCACACGU
B26: target 3 insC 3' of 22,insU 3' of 4 (mixed)
RNA 1: B1 RNA 1
RNA 2: B6 RNA 2 with U31C, A32U, C49G, G50U
B27: target 3 U7C,U8A (mixed)
RNA 1: B1 RNA 1
RNA 2: B1 RNA 2 with U44A, G45C
B28: target 3 G3C,A12G (mixed)
RNA 1: B1 RNA 1
RNA 2: B1 RNA 2 with A40G, G45U, G49C
B29: target 3 insC 3' of 4,insA 3' of 4 (mixed)
RNA 1: B1 RNA 1
RNA 2: B9 RNA 2 with G49C, U50A, U51G, C52U, U53C
B30: target 1 insU 3' of 14,insU 3' of 9 (mixed)
RNA 1: CACCCGUGCAAAAAUGCAGGGGUCUAAAACUGAGCGGAUAACCUCUCUAUGG
RNA 2: GGGAAUGGAUCCACAUCUACGAAUUCGUACCAUAGAGAUGGUUAUUCCGCUCACCGAGAUCGGAAGAGCACACGU
B31: target 1 U8C,C22A (mixed)
RNA 1: B30 RNA 1
RNA 2: GGGAAUGGAUCCACAUCUACGAAUUCGUAACAUAGAGAGGUUACCCGCUCACCGAGAUCGGAAGAGCACACGU
B32: target 1 insC 3' of 13,insA 3' of 13 (mixed)
RNA 1: B30 RNA 1
RNA 2: B30 RNA 2 with U39G, G40C, G41A, U42G, A44U, U45A
B33: target 1 insC 3' of 8,insA 3' of 8 (mixed)
RNA 1: B30 RNA 1
RNA 2: B30 RNA 2 with U39G, G41U, U43A, A44U, U45C, U46A

Biological target: T1, EsCas13d, nuclease-dead
Test: crRNA (strand 1, pre-loaded); Mg2+; 40 mM Tris-HCl pH 7.5, 150 mM NaCl, 6 mM MgCl2, 1 mM DTT, 0.1% Tween-20, 0.2 mg/ml BSA; 25 C; 10 min per concentration, then washed
Details: tags: His6-TwinStrep-SUMO cleaved; N-terminal SNAP kept (SNAP-Surface 488); label: 3' end held by stalled T7 RNA polymerase

Binder | Kd
B1 | 47 ± 8 nM
B2 | 29.8 ± 4.05 nM
B3 | 54.5 ± 7.7 nM
B4 | ~68.5 nM
B5 | 55.5 ± 13 nM
B6 | 69.5 ± 11.5 nM
B7 | 69.5 ± 15.5 nM
B8 | 108 ± 33.5 nM
B9 | 96 ± 24.5 nM
B10 | 88.5 ± 21.5 nM
B11 | 26.1 ± 2.35 nM
B12 | 7.93 ± 0.61 nM
B13 | 85 ± 31.5 nM
B14 | 7.75 ± 0.6 nM
B15 | 50 ± 9 nM
B16 | 54 ± 14.5 nM
B17 | 84.5 ± 20 nM

Binder | Kd
B18 | 15.1 ± 1.55 nM
B19 | 42 ± 6.5 nM
B20 | 57 ± 8.5 nM
B21 | 60 ± 26.5 nM
B22 | 49 ± 7 nM
B23 | 20.4 ± 2.3 nM
B24 | ~40 nM
B25 | 45.5 ± 11.5 nM
B26 | 8.75 ± 2.3 nM
B27 | 114 ± 28 nM
B28 | 100 ± 33 nM
B29 | 21.8 ± 2.15 nM
B30 | 52 ± 9 nM
B31 | 21.9 ± 2.2 nM
B32 | 17.2 ± 1.6 nM
B33 | 9.9 ± 0.5 nM
